Patent US20130109581A1, “POSITIVELY CHARGED SPECIES AS BINDING REAGENTS IN THE SEPARATION OF PROTEIN AGGREGATES FROM MONOMERS” (priority 2009, published 2013)
Where two headings read alike, the source gives them in different places. Where no end group is shown, it is not given here. [ ]: non-standard residue; d: D form. Ahx = NCCCCCC(=O)O

What was measured:
Format in all cases: binding
[1] = target: Abeta 42 globulomer (Homo sapiens, UniProt P05067); test: NMPA with detergent washing after PSR1 pulldown: globulomer detection
[2] = target: T1, normal CSF Aβ42 (Homo sapiens, UniProt P05067); test: NMPA with detergent washing: background from unspiked CSF, Abeta42; settings: CSF; PSR1 beads treated with detergent post capture
T1 construct: reduced the detection of normal CSF Aβ42 to the background levels; from tissue; host or cells: pooled normal cerebrospinal fluid
Method: Second, two neutral detergents, polyethylene glycol sorbitan monolaurate (available as TWEEN 20 from Sigma-Aldrich, St. Louis, Mo.) and n-tetradecyl-N,N-dimethyl-3-ammonio-1-propanesulfonate (available as ZWITTERGENT 3-14 from EMI) Chemicals, Gibbstown, N.J.) were used to treat the globulomer-spiked CSF samples that had been contacted with PSR1 beads. For each assay, a mixture of 30 μl of PSR1 beads (coated at about 7-12 nmol PSR1 ligand/mg DYNAL beads, which were used in this example and in the following examples unless otherwise stated) and 70 μl of 1×TBSTT was immediately pipetted into each well on the pulldown plate. The liquid was removed on a magnetic separator. Fifty micro liters of 5×TBSTT was added to each well. The beads were suspended by briefly shaking at 750 rpm. Next […] of TBSTT or CSF sample without globulomer was added to each well. The pulldown plate was sealed and incubated at 37° C. for 1 hour with shaking at 500 rpm. After incubation, the beads were washed 8 times with TBST on the plate washer. After the plate wash, residual TBST buffer was removed from the beads on the magnetic separator. The beads were then incubated with 100 μl of either TBS, 1% Tween20 or 1% Zwittergent 3-14 for 30 minutes at room temperature at 750 rpm, (followed by an additional 8 washes with TBST on the plate washer. After removing residual TBST on the magnetic separator, 20 μl of denaturing solution, typically 0.1-0.15 N NaOH, was added to the beads. The plate was covered with an aluminum foil plate sealer and incubated at 80° C. for 30 minutes with shaking at 750 rpm. After incubation, the plate was cooled to room temperature and twenty micro liters of neutralizing solution, typically 0.12-0.18 M NaH2PO4+0.4% Tween20) was added into each well and the plate was incubated at room temperature for 5 minutes with shaking at 750 rpm. […] MSD Abeta Triplex Assay was preformed according to the manufacturer's instructions.
A summary of the assay results and calculated signal/noise is shown below in Table 17.

[3] = target: T2, Abeta 1-40 monomer (Homo sapiens, UniProt P05067); test: Globulomer capture assay in CSF (Example 6): Abeta 1-40 noise; settings: for 40, 1 ng/ml average reading: Abeta 1-40 signal (noise), CSF samples; for background monomeric Abeta capture (noise): CSF
T2 construct: Abeta 1-40 monomer capture level; from tissue; host or cells: cerebrospinal fluid (matrix of the assay)
Method: (§1) A series of new potential aggregate-specific binding reagents were designed as shown below and conjugated onto magnetic Dynal M270 beads as described in Example 2. Typically 7-12 nmol of ligand (each candidate aggregate-specific binding reagent) was coated onto 1 mg of beads.
(§2) Aliquots of the beads (typically 3 ul) were added to wells of a 96 well plate, followed by sample (with or without Abeta 1-42 globulomer (an Abeta42 oligomer model) spiked in 80:20 CSF:TBSTT, typically 125 ul). The plate was sealed and incubated for 1 hour at 37° C. with shaking. The plate was washed with aqueous solutions of detergent (typically polyethylene glycol sorbitan monolaurate and n-tetradecyl-N,N-dimethyl-3-ammonio-1-propanesulfonate) to remove ubound material and the residual buffer removed. A denaturing solution (typically 0.1-0.15 N NaOH) was added to each well and the plate heated to 80° C. for 30 min with shaking. After cooling the plate to room temperature, a neutralizing buffer (typically 0.12-0.18 M NaH2PO3 in 0.4% TWEEN20,) was added and the plate was shaken briefly at room temperature. The bead eluate was analyzed using either an Aβ42-specific ELISA or the MSD® 96-Well MULTI-SPOT® Human/Rodent [4G8] Abeta Triplex Ultra-Sensitive Assay from Meso Scale Discovery (Gaithersburg, Md.). For the Aβ42-specific assay, the samples were eluted from the beads and a detection antibody (4G8 HRP) was added to a plate bearing the Aβ42-specific antibody 12F4. The plate was incubated for 1 hour, washed, the substrate was added (SuperSignal West Femto Maximum Sensitivity Substrate from Thermo Fisher, Rockville, Md.), and the luminescence was measured. The MSD plate assay was performed in a similar fashion, according to the manufacturer's protocol.
(§3) In this experiment the preferred number of charges within a given scaffold was identified. An Ala/Lys peptide framework was utilized, where the inclusion of each Lys residue increases the peptides' net charge by +1. Six hexapeptides with increasing charge (+1→+6), AAAKAA, AAKKAA, AAKKKA, AKKKKA, AKKKKK, and KKKKKK, were prepared and conjugated on the beads. The ability of these beads to capture Abeta 1-42 globulomer spiked at 1 ng/mL into CSF was tested, and the result is shown in FIG. 25. The globulomer capture level (“42 1 ng/ml” or the closed bars) was compared to the background signal of Abeta 1-42 detected in the unspiked CSF (“42 0 ng/ml”) and the background signal of Abeta 1-40 detected in unspiked CSF (“40 0 ng/ml”) or CSF spiked with AB42 oligomers “40 1 ng/ml”. The charge density, as conjugated to the magnetic beads, of each reagent evaluated in this experiment is shown below in Table 8.

[4] = target: T3, Abeta 1-42 globulomer (Homo sapiens, UniProt P05067); test: Globulomer capture assay in CSF (Example 6); settings: for 42:40 (signal:noise ratio): 1 ng/ml average reading, ratio of 42 to 40; for 42, 1 ng/ml average reading: Abeta 1-42 globulomer spiked at 1 ng/mL into CSF; for globulomer capture: Abeta42 globulomer spiked into CSF, reagents on beads
T3 construct: beta amyloid (1-42) was monomerized with incubation in hexafluoroisopropanol
Method: as §1, §2, §3

[5] = 0.5 ng/mL vs 0 ng/mL globulomer
[6] = Abeta 42 RLU at 0.5 ng/mL over average Abeta 40 RLU
[7] = CSF, PSR1 beads treated with detergent post capture

Molecule | 40, 1 ng/ml average reading [3] [RLUs] | 42:40 (signal:noise ratio) [4] | 42, 1 ng/ml average reading [4] [RLUs] | globulomer capture [4] | also measured
CCCCCCCCCCCCCC(=O)NCCC[N+](C)(C)CCCS(=O)(=O)[O-] [ASB-14, Amidosulfobetaine-14,3-[N,N-Dimethyl(3-myristoylaminopropyl)ammonio]propanesulfonate] |  |  |  |  | Abeta 42 RLU, 0.5 ng/mL Abeta 42 globulomer, Average [1]: 779.3 RLU; S/N Abeta 42 globulomer-spiked/Abeta 40 [1]: 2.0; S/N Abeta 42 globulomer-spiked/unspiked [1]: 8.7; Abeta 42 RLU, 0 ng/mL Abeta 42 globulomer, Average [2]: 89.7 RLU
CCCCCCCCCCCCCCCC(=O)NCCC[N+](C)(C)CCCS(=O)(=O)[O-] [ASB-16, Amidosulfobetain-16,3-[N,N-Dimethyl-N-(3-palmitamidopropyl)ammonio]propane-1-sulfonate] |  |  |  |  | Abeta 42 RLU, 0.5 ng/mL Abeta 42 globulomer, Average [1]: 788.7 RLU; S/N Abeta 42 globulomer-spiked/Abeta 40 [1]: 2.8; S/N Abeta 42 globulomer-spiked/unspiked [1]: 8.2; Abeta 42 RLU, 0 ng/mL Abeta 42 globulomer, Average [2]: 95.7 RLU
CCCCCCCCc1ccc(C(=O)NCCC[N+](C)(C)CCCS(=O)(=O)[O-])cc1 [ASB-C8phn, 4-n-Octylbenzoylamido-propyl-dimethylammonio Sulfobetaine] |  |  |  |  | Abeta 42 RLU, 0.5 ng/mL Abeta 42 globulomer, Average [1]: 936.3 RLU; S/N Abeta 42 globulomer-spiked/Abeta 40 [1]: 1.4; S/N Abeta 42 globulomer-spiked/unspiked [1]: 9.3; Abeta 42 RLU, 0 ng/mL Abeta 42 globulomer, Average [2]: 100.7 RLU
CCCCCCCCCCCC[N+](C)(C)CC(=O)[O-] [Empigen, N,N-Dimethyl-N-dodecylglycine betaine] |  |  |  |  | S/N Abeta 42 globulomer-spiked/unspiked [1, 5]: 8.7; S/N Abeta 42 globulomer-spiked/Abeta 40 [1, 6]: 2.6; Abeta 42 RLU, 0.5 ng/mL Abeta 42 globulomer, Average [1, 7]: 670.3 RLU; Abeta 42 RLU, 0 ng/mL Abeta 42 globulomer, Average [2]: 76.7 RLU
CCCCCCCC[N+](C)(C)CCCS(=O)(=O)[O-] [ZW3-08] |  |  |  |  | Abeta 42 RLU, 0.5 ng/mL Abeta 42 globulomer, Average [1]: 668.7 RLU; S/N Abeta 42 globulomer-spiked/Abeta 40 [1]: 0.9; S/N Abeta 42 globulomer-spiked/unspiked [1]: 6.8; Abeta 42 RLU, 0 ng/mL Abeta 42 globulomer, Average [2]: 97.7 RLU
AAAKAA | 134.5 | 0.8 | 113.5 |  | 
AAKKAA | 147 | 1.1 | 159.5 |  | 
AAKKKA | 159 | 1.6 | 247 |  | 
AKKKKA | 155.5 | 2.1 | 322.5 | significantly lower globulomer capture efficiency | 
AKKKKK | 176 | 2.5 | 442 |  | 
ANFFAHSS | 543 | 1.8 | 994.5 |  | 
Ac-KKKFKF: acetylated KKKFKF peptide conjugated to beads with the Ahx-Ahx-Cys-NH2 linker (Ac-KKKFKF[Ahx][Ahx]C-NH2; also: conjugated to beads via the linker) |  |  |  | captured globulomer specifically | 
DFKLNFKF | 259.5 | 2 | 515.5 |  | 
F-fdb-F-fdb-fdb-fdb |  |  |  | more effective than the δ peptide | 
FKFKKK-link: FKFKKK peptide reagent with linker to bead at the right end; charge closest to the beads (FIG. 27) (not fully specified (C-terminus); printed as FKFKKK-link; also: attached to bead through link at right end) | 348 | 5.7 | 1995 | significantly better than the remainder of the beads | 
FKFNLFSG | 1327.5 | 2.4 | 3230.5 | efficient at capturing globulomer | background monomeric Abeta capture (noise) [3]: captured significant amounts of background monomeric species
FKFSLFSG | 2011 | 1.5 | 3078.5 | efficient at capturing globulomer | background monomeric Abeta capture (noise) [3]: captured significant amounts of background monomeric species
FoFooo |  |  |  | captured globulomers specifically | 
IRYVTHQYILWP | 1011.5 | 3.2 | 3242 | efficient at capturing globulomer | background monomeric Abeta capture (noise) [3]: captured significant amounts of background monomeric species
KFKKKF |  |  |  | captured globulomers specifically | 
KIGVVR |  |  |  | captured Abeta 1-42 globulomer at a high level that's similar to PSR1's globulomer capture level | background monomeric Abeta capture (noise) [3]: low levels of monomeric Abeta 1-40 noise similar to PSR1's
KKFKKF |  |  |  | captured globulomers specifically | 
KKKFKF-link: KKKFKF peptide reagent with linker to bead at the right end (FIG. 27) (not fully specified (C-terminus); also: attached to bead through link at right end) | 191.5 | 3.9 | 748 | able to capture globulomers | 
link-FKFKKK: FKFKKK peptide reagent with linker to bead at the left end (FIG. 27) (not fully specified (N-terminus); also: attached to bead through link at left end) | 198 | 4.1 | 808 | able to capture globulomers | 
n-Dodecyl-N,N-dimethyl-3-ammonio-1-propanesulfonate [ZW3-12] |  |  |  |  | S/N Abeta 42 globulomer-spiked/unspiked [1, 5]: 7.1; S/N Abeta 42 globulomer-spiked/Abeta 40 [1, 6]: 1.4; Abeta 42 RLU, 0.5 ng/mL Abeta 42 globulomer, Average [1, 7]: 642.0 RLU; Abeta 42 RLU, 0 ng/mL Abeta 42 globulomer, Average [2]: 90.7 RLU
